These are literature values, as cited in PMC3218054, “Characterisation of the Interaction of the C-Terminus of the Dopamine D2 Receptor with Neuronal Calcium Sensor-1” (PLoS ONE, 2011).

This series has as its system NCS-1. The settings on record: D3 receptor. The text has this:
Ultimately, it would be important to understand how NCS-1 interacts with the intact receptor. We, therefore, constructed a model of the NCS-1-D3 receptor complex using the AIR derived from the D2SR peptide-NCS-1 chemical mapping data, and taking into consideration that many of the hydrophobic residues at the C-terminus of D3 receptor are involved in intramolecular interactions with helix I of the receptor [45]. HADDOCK docking produ ... || Biophysical analysis of NCS-1 was consistent with the protein being monomeric in the presence or absence of Ca ^2+.

Entries after “also recorded” stand apart in the source; their conditions may differ.

B1: D3 receptor: dopamine D3 receptor (PDB Accession 3PBL), docked onto NCS-1 (protein, UniProt P35462 1-400, looked up)
D(3) dopamine receptor: MASLSQLSGHLNYTCGAENSTGASQARPHAYYALSYCALILAIVFGNGLVCMAVLKERALQTTTNYLVVSLAVADLLVATLVMPWVVYLEVTGGVWNFSRICCDVFVTLDVMMCTASILNLCAISIDRYTAVVMPVHYQHGTGQSSCRRVALMITAVWVLAFAVSCPLLFGFNTTGDPTVCSISNPDFVIYSSVVSFYLPFGVTVLVYARIYVVLKQRRRKRILTRQNSQCNSVRPGFPQQTLSPDPAHLELKRYYSICQDTALGGPGFQERGGELKREEKTRNSLSPTIAPKLSLEVRKLSNGRLSTSLKLGPLQPRGVPLREKKATQMVAIVLGAFIVCWLPFFLTHVLNTHCQTCHVSPELYSATTWLGYVNSALNPVIYTTFNIEFRKAFLKILSC
Turning to B1, the “ability to bind NCS-1” value is “shown to bind to the dopamine D3 receptor and to regulate its internalisation; also recorded: can also bind to NCS-1”.
